B1: H2-Kb / Ed16-30 (parent complex)
chain 1: GEQVEQRPPHLSVREGDSAVIICTYTDPNSYYFFWYKQEPGAGLQLLMKVFSSTEINEGQGFTVLLNKKDKQLSLNLTAAHPGDSAVYFCAVSEPSSGQKLVFGQGTILKVYL
chain 2: EAAVTQSPRNKVAVTGGKVTLSCNQTNNHNNMYWYRQDTGHGLRLIHYSYGAGSTEKGDIPDGYKASRPSQENFSLILELATPSQTSVYFCAGRDTGQLYFGEGSKLTVL
chain 3: not shown
chain 4: IQKTPQIQVYSRHPPENGKPNILNCYVTQFHPPHIEIQMLKNGKKIPKVEMSDMSFSKDWSFYILAHTEFTPTETDTYACRVKHDSMAEPKTVYWDRDM
chain 5: SIINFEKL
B2: H2-Kb / Ed40 (parent complex)
chain 1: GDSVTQTEGPVTVSESESLIINCTYSATSIAYPNLFWYVRYPGEGLQLLLKVITAGQKGSSRGFEATYNKETTSFHLQKASVQESDSAVYYCALGDGYTGNYKYVFGAGTRLKVIA
chain 2: DSGVVQSPRHIIKEKGGRSVLTCIPISGHSNVVWYQQTLGKELKFLIQHYEKVERDKGFLPSRFSVQQFDDYHSEMNMSALELEDSAMYFCASSGASAETLYFGSGTRLTVL
chain 3: not shown
chain 4: B1 chain 4
chain 5: SIINFEKL
Also: test concentration or dose not given here.

The variants in one assay derive from B1. In words: % of reporter cells activated (NFAT-GFP), raw.
Consider chain 5 F5M, for which the ratio to parent came to 1.28.
On the same count and under the same terms, the same measure for chain 5 F5R: 1.19; for chain 5 F5Y: 1.14; for chain 5 F5C: 1.23.
Regarding chain 5 F5I, the ratio to parent is 1.11.
Still for that read-out and setting: the same measure for chain 5 F5G: 0.976; for chain 5 F5L: 1.21.
As to chain 5 F5E, the ratio to parent came out at 0.752.
Same read-out and setting: the same measure for chain 5 F5P: 0.769; for chain 5 F5H: 1.21.
On the same count and under the same terms, under chain 5 F5N stands 0.969; under chain 5 F5K, 1.04.
Consider chain 5 F5Q, for which the ratio to parent worked out at 1.25.
As to chain 5 F5V, the ratio to parent is 1.25.
Same read-out and setting: the same measure for chain 5 I3S: 0.393; for chain 5 I3Q: 0.322.
On the same count and under the same terms, the same measure for chain 5 I3F: 0.69.
The same measure, in the same setting: the same measure for chain 5 I3H: 0.558; for chain 5 I3Y: 0.607.
In the case of chain 5 I3A, the ratio to parent worked out at 0.413.
Still for that read-out and setting: under chain 5 I3P stands 0.64; under chain 5 I3G, 0.137; under chain 5 I3M, 0.425.
Take chain 5 I3T: the ratio to parent stood at 0.613.
On the same count and under the same terms, the same measure for chain 5 I3K: 0.779; for chain 5 I3C: 0.642.
For the variant chain 5 I3R, the ratio to parent was 0.104.
Still for that read-out and setting: under chain 5 I3W stands 0.537; under chain 5 I3N, 0.507; under chain 5 I3V, 1.11.
Same read-out and setting: under chain 5 I3D stands 0.562; under chain 5 E6R, 0.363.
Same read-out and setting: under chain 5 E6F stands 0.35; under chain 5 E6L, 0.387; under chain 5 E6S, 0.609.
For the variant chain 5 E6N, the ratio to parent amounted to 0.588.
Still for that read-out and setting: under chain 5 E6C stands 0.197; under chain 5 E6I, 0.00701; under chain 5 E6K, 0.503.
In the case of chain 5 E6G, the ratio to parent amounted to 0.543.
On the same count and under the same terms, under chain 5 E6Q stands 0.745.
Same read-out and setting: under chain 5 E6H stands 0.488; under chain 5 E6M, 0.399.
The same measure, in the same setting: the same measure for chain 5 E6D: 1.28; for chain 5 E6Y: 0.308; for chain 5 E6P: 0.508.
Turning to chain 5 E6T, the ratio to parent turned out to be 0.545.
On the same count and under the same terms, the same measure for chain 5 E6A: 0.508.
Same read-out and setting: the same measure for chain 5 L8R: 1.04; for chain 5 L8Q: 1.13.
Same read-out and setting: under chain 5 L8Y stands 1.13.
Regarding chain 5 L8T, the ratio to parent was 1.09.
The same measure, in the same setting: under chain 5 L8I stands 1.19; under chain 5 L8H, 1.06.
The same measure, in the same setting: under chain 5 L8M stands 1.08.
On the same count and under the same terms, under chain 5 L8N stands 0.798; under chain 5 L8C, 0.731; under chain 5 L8G, 0.904.
Turning to chain 5 L8F, the ratio to parent came out at 1.12.
Same read-out and setting: the same measure for chain 5 L8P: 0.836; for chain 5 L8K: 1.
Same read-out and setting: under chain 5 L8S stands 1.04; under chain 5 L8A, 1.04.
The same measure, in the same setting: the same measure for chain 5 N4L: 0.507; for chain 5 N4M: 0.0762.
With chain 5 N4G, the ratio to parent is 0.0285.
The same measure, in the same setting: the same measure for chain 5 N4P: 0.121; for chain 5 N4T: 0.0259.
Regarding chain 5 N4C, the ratio to parent came out at 0.0363.
Take chain 5 N4E: the ratio to parent was found to be 0.00872.
For chain 5 N4V, the ratio to parent was found to be 0.0105.
Turning to chain 5 N4I, the ratio to parent came out at 0.0453.
Consider chain 5 N4Q, for which the ratio to parent came to 0.0901.
Same read-out and setting: under chain 5 N4K stands 0.0853; under chain 5 N4D, 0.9; under chain 5 N4R, 0.318.
Turning to chain 5 N4A, the ratio to parent was 0.0158.
Same read-out and setting: the same measure for chain 5 N4W: 0.0129; for chain 5 N4F: 0.00803.
Same read-out and setting: the same measure for chain 5 N4H: 0.165.
The same measure, in the same setting: the same measure for chain 5 N4S: 0.0223; for chain 5 I2G: 1.25; for chain 5 I2D: 1.31.
On to chain 5 I2M, for which the ratio to parent amounted to 1.31.
The same measure, in the same setting: under chain 5 I2L stands 1.33; under chain 5 I2E, 1.21.
In the case of chain 5 I2N, the ratio to parent was 0.951.
Take chain 5 I2H: the ratio to parent turned out to be 0.72.
On the same count and under the same terms, the same measure for chain 5 I2Q: 0.726; for chain 5 I2T: 1.18; for chain 5 I2V: 1.33.
chain 5 I2S: the ratio to parent was determined as 1.19.
Regarding chain 5 I2A, the ratio to parent was 1.2.
Turning to chain 5 I2K, the ratio to parent was 0.978.
The same measure, in the same setting: under chain 5 I2Y stands 0.774; under chain 5 I2P, 1.06; under chain 5 S1T, 0.386.
Still for that read-out and setting: the same measure for chain 5 S1Q: 0.323; for chain 5 S1A: 0.631.
As to chain 5 S1H, the ratio to parent was 0.259.
Still for that read-out and setting: under chain 5 S1G stands 0.485.
The same measure, in the same setting: the same measure for chain 5 S1P: 0.0976; for chain 5 S1Y: 0.55; for chain 5 S1V: 0.362.
The same measure, in the same setting: the same measure for chain 5 S1M: 0.632; for chain 5 S1D: 0.337; for chain 5 S1K: 0.144.
In the case of chain 5 S1L, the ratio to parent came to 0.313.
Same read-out and setting: the same measure for chain 5 S1E: 0.0535; for chain 5 S1N: 0.522.
Take chain 5 S1W: the ratio to parent was found to be 0.128.
In the case of chain 5 S1C, the ratio to parent was 0.186.
chain 5 S1R: the ratio to parent was determined as 0.184.
The same measure, in the same setting: under chain 5 S1F stands 0.025; under chain 5 K7W, 0.74.
The same measure, in the same setting: under chain 5 K7I stands 0.61; under chain 5 K7P, 0.796.
The same measure, in the same setting: under chain 5 K7S stands 0.842.
For chain 5 K7V, the ratio to parent was determined as 0.687.
chain 5 K7D: the ratio to parent turned out to be 0.162.
Still for that read-out and setting: under chain 5 K7G stands 0.381; under chain 5 K7E, 0.0275; under chain 5 K7Y, 0.265.
With chain 5 K7A, the ratio to parent is 0.499.
Still for that read-out and setting: the same measure for chain 5 K7L: 0.401; for chain 5 K7H: 0.478; for chain 5 K7T: 0.716.
Still for that read-out and setting: the same measure for chain 5 K7C: 0.563.

The next assay covers variants of B2. Description: % of reporter cells activated (NFAT-GFP), raw.
As for chain 5 I2G, the ratio to parent was 0.922.
The same measure, in the same setting: under chain 5 I2S stands 1.1.
Same read-out and setting: under chain 5 I3Y stands 0.762; under chain 5 I3V, 0.69.
The same measure, in the same setting: the same measure for chain 5 I3C: 0.523; for chain 5 I3T: 0.423.
As for chain 5 I3G, the ratio to parent stood at 0.319.
The same measure, in the same setting: under chain 5 K7L stands 0.192; under chain 5 K7T, 0.224.
Take chain 5 K7R: the ratio to parent stood at 0.622.
Same read-out and setting: under chain 5 F5E stands 0.52.
Same read-out and setting: the same measure for chain 5 N4T: 0.00333.
The same measure, in the same setting: the same measure for chain 5 N4Y: 0.0157.
Take chain 5 S1K: the ratio to parent was determined as 0.399.
As to chain 5 S1G, the ratio to parent came to 1.
Still for that read-out and setting: under chain 5 S1D stands 0.892.
Same read-out and setting: the same measure for chain 5 S1Q: 0.681.
Same read-out and setting: the same measure for chain 5 S1W: 0.335.
Take chain 5 L8T: the ratio to parent came out at 0.885.
On the same count and under the same terms, under chain 5 L8G stands 0.595.
Same read-out and setting: under chain 5 E6G stands 0.464; under chain 5 E6H, 0.172.

The record behind these values is paper PMC11480844 (2024).
